The target of assay [1] is glutamine synthetase CsGSIb from Camellia sinensis, wild type (Camellia sinensis). Briefly: AUC; sedimentation velocity, 0.1/0.25/0.5 mg/mL, 50 mM Tris-HCl pH 7.4, 100 mM NaCl, 1.5 mM β-mercaptoethanol, rotor at 20 °C (results: room temperature); global fit; decamer to two pentamers.
Assay [2] shares this target. Briefly: SEC-MALS; Superdex 200 10/300 GL with MALS and QELS; 50 mM KPi pH 7.0, 100 mM NaCl, 1 mM β-mercaptoethanol, 0.05 % NaN3; room temperature (~23 °C); self-association of the GS. Background: SEC sorts molecules by how far they enter the pores of the column.
For assay [3] the target is unchanged.
Assay [4] deals with CsGSIb EVK138DIQ mutant (Camellia sinensis). Briefly: AUC; sedimentation velocity, 0.1/0.25/0.5 mg/mL, 50 mM Tris-HCl pH 7.4, 100 mM NaCl, 1.5 mM β-mercaptoethanol, rotor at 20 °C (results: room temperature); global fit; decamer to two pentamers.
The target is the same in assay [5]. Briefly: SEC-MALS; Superdex 200 10/300 GL with MALS and QELS; 50 mM KPi pH 7.0, 100 mM NaCl, 1 mM β-mercaptoethanol, 0.05 % NaN3; room temperature (~23 °C); self-association of the GS.
Assay [6] shares this target.
The target of assay [7] is glutamine synthetase GmGSβ2 from Glycine max (Glycine max). In words: SEC-MALS; Superdex 200 10/300 GL with MALS and QELS; 50 mM KPi pH 7.0, 100 mM NaCl, 1 mM β-mercaptoethanol, 0.05 % NaN3; room temperature (~23 °C); self-association of the GS.
Assay [8] concerns the target CsGSIb I143L mutant (Camellia sinensis). In words: AUC; sedimentation velocity, 0.1/0.25/0.5 mg/mL, 50 mM Tris-HCl pH 7.4, 100 mM NaCl, 1.5 mM β-mercaptoethanol, rotor at 20 °C (results: room temperature); global fit; decamer to two pentamers.
The target is the same in assay [9]. In words: SEC-MALS; Superdex 200 10/300 GL with MALS and QELS; 50 mM KPi pH 7.0, 100 mM NaCl, 1 mM β-mercaptoethanol, 0.05 % NaN3; room temperature (~23 °C); self-association of the GS.
For assay [10] the target is unchanged.

Where “and” joins values, the source holds several entries; their conditions need not be identical. Identical values can stand only once.

With “glutamine synthetase CsGSIb from Camellia sinensis, wild type (enzyme)”, in [1], the Kd (commonly the free concentration of one partner at which half of the binding sites on the other are occupied at equilibrium, for simple one-to-one binding) was found to be 0.27 µM; the stoichiometry N – broadly, the number of molecules, sites or subunits per partner or assembly – was 10 and 5. In [2], the fraction decameric came to 18%; the fraction pentameric stood at 82%; the stoichiometry N is 5 and 10. In addition, the glutamine synthetase activity on raising the CsGSIb concentration from 1 μM to 5 μM (monomer) in assay [3] is 30 fold.
Consider CsGSIb EVK138DIQ mutant (enzyme), for which the Kd in assay [4] worked out at 0.04 µM. The same substance showed a fraction decameric in assay [5] of 72%. This substance also showed a glutamine synthetase activity, increase over wild-type CsGSIb (1 μM monomer enzyme, 30 min, 37 °C) in assay [6] of 64 fold.
As to “glutamine synthetase GmGSβ2 from Glycine max (enzyme)”, the stoichiometry N in assay [7] came out at 10.
Substance CsGSIb I143L mutant (enzyme) came in with a Kd in assay [8] of 0.01 µM. The same substance yielded a fraction decameric in assay [9] greater than 95%. Further, the glutamine synthetase activity, increase over wild-type CsGSIb (1 μM monomer enzyme, 30 min, 37 °C) in assay [10] came out at 76 fold.

These data come from publication PMC8668187.
